The values below come from PMC6347818.

The target of test [1] is recombinant Plasmodium vivax Apical Membrane Antigen 1, PvAMA1-His6 (Plasmodium vivax) (UniProt Q9TY14). As to the kind of experiment: ITC; MicroCal VP-ITC; 9.43 µmol/L PvAMA1-His6 in the cell titrated with 300 µmol/L peptide (10 µL injections), 25 °C, PBS; one-site model. A general note: In ITC the heat of successive injections is recorded.
Test [2] shares this target. Nature of the test: SPR; Biacore T200; PvAMA1-His6 amine-coupled on a CM5 chip; peptides injected at 50 µL/min, 25 °C, PBS; steady-state model, apparent KD. For orientation: Surface plasmon resonance follows binding to a sensor surface in real time, without labels.

cyclic PvRON2 (2035-2074) peptide: in test [1], the Ka is 300000 M⁻¹, the dH is -36 kcal/mol and the stoichiometry N (peptide/protein) is 0.6. Also, the Kd in test [2] stood at 23.9 µM.
